Data from article PMC4685008.
Blank lines part the entries; values can stand above or below the substance they belong to.

Columns and labels:
mGluR5 (endogenous) [1] = molecular target: mGluR5 (endogenous) (UniProt Q3UVX5); assay: co-IP with myc antibody, mGluR5 blot
mGluR5 (endogenous) [2] = molecular target: mGluR5 (endogenous) (UniProt Q3UVX5); assay: co-IP of myc-Homer; conditions: reference: H2WT replacement; sites S117,S216

binding against the reference (mGluR5 (endogenous) [1]; reference: H2mycWT, sites S117,S216): stronger
Substance: Homer2 (H2) (from UniProt Q9QWW1) H2mycS117/216AA

binding against the reference (mGluR5 (endogenous) [1]; reference: H1mycWT, sites S117): stronger
Substance: Homer1 (H1, long form) (from UniProt Q9Z2Y3) H1mycS117A

binding against the reference (mGluR5 (endogenous) [2]): stronger
Substance: Homer2 (H2) (from UniProt Q9QWW1) H2S117/216AA replacement
